Measured values as given in FireProtDB (doi:10.1006/jmbi.1999.2582).
Several values for one entry are separate records, joined by “and”; a condition that tells them apart may be missing. Equal entries are not always repeated.

Details: Myxococcus xanthus, Mops-NaOH 25 mM, CaCl2 3 mM, transition: 3, reversible: Yes, whole UniProt chain shown

B1: Development-specific protein S wild type, P02966 (protein)
chain: MANITVFYNEDFQGKQVDLPPGNYTRAQLAALGIENNTISSVKVPPGVKAILYQNDGFAGDQIEVVANAEELGPLNNNVSSIRVISVPVQPRARFFYKEQFDGKEVDLPPGQYTQAELERYGIDNNTISSVKPQGLAVVLFKNDNFSGDTLPVNSDAPTLGAMNNNTSSIRIS
denaturant m value (pH 2, 20 °C, Urea, Absorbance): 2.87 kcal/mol/M
denaturant midpoint (higher = more stable) (pH 2, 20 °C, Urea, Absorbance): 2.2 M
unfolding free energy (pH 2, 20 °C, Urea, Absorbance): 6.21 kcal/mol
Tm (pH 2, Thermal, CD): 52 °C
denaturant m value (pH 7, 20 °C, Urea, Absorbance): 1.2 kcal/mol/M and 1.43 kcal/mol/M and 1.91 kcal/mol/M
unfolding free energy (pH 7, 20 °C, Urea, Absorbance): 5.02 kcal/mol and 7.41 kcal/mol and 3.59 kcal/mol
